The assay concerns PC12 cells. The assay is described as follows: RDA of PC12 cells transiently transfected with pMET7-mLRlo. The class given is cell-based, rat. As to conditions: leptin-forskolin co-stimulated versus forskolin alone. As to the method:
To search for genes regulated by leptin in the PC12 cell line, a RDA (representational difference analysis) experiment was performed using a modification of the original method (Hubank and Schatz, 1994). Using this procedure, it is possible to clone amplicons corresponding to transcripts from leptin-forskolin co-stimulated PC12 cells, transiently transfected with pMET7-mLRlo. After three rounds of subtraction/amplification, selectively amplified bands were purified and subcloned in the pCDNA3 or pCR-Blunt vector (Invitrogen). […] Based on this observation, a simple one-tube RT-PCR based procedure was set up to select for PC12 subclones, stably expressing the leptin receptor long isoform (FIG. 2 portion A). One stable clone, PC12-LR8, was chosen for further experiments (FIG. 2 portion B). Individual inserts from the cloned amplicon collection were radiolabeled and leptin-dependent gene regulation was verified and studied in more detail by Northern blot analysis on the PC12-LR8 cell line.
RDA was used to clone differentially expressed cDNAs from PC12 cells, transiently transfected with the leptin receptor long isoform, or from neuronal differentiated PC12-LR8 cells, which stably express the leptin receptor long isoform. In both cases, cloning was performed using mRNA from cells either stimulated with leptin+forskolin or with forskolin alone. […]

The record followed here is patent US7291458B2, “Leptin-mediated gene-induction” (Vlaams Interuniversitair Instituut Voor Biotechnologie VZW, priority 1998, dated 2007).

B1: leptin: mouse leptin (R&D Systems), ob gene product, used on PC12 cells at 100 ng/ml (protein)
chain: VPIQKVQDDTKTLIKTIVTRINDISHTQSVSAKQRVTGLDFIPGLHPILSLSKMDQTLAVYQQVLTSLPSQNVLQIANDLENLRDLLHLLAFSKSCSLPQTSGLQKPESLDGVLEASLYSTEVVALSRLQGSLQDILQQLDVSPEC
Turning to B1, the “induction of rat Pancreatitis Associated Protein I (rPAP I) transcript” value is reported as “strongly induced”.
